The target of test [1] is T1, p47phox, recombinant wild type (human), P14598.
T1 chain: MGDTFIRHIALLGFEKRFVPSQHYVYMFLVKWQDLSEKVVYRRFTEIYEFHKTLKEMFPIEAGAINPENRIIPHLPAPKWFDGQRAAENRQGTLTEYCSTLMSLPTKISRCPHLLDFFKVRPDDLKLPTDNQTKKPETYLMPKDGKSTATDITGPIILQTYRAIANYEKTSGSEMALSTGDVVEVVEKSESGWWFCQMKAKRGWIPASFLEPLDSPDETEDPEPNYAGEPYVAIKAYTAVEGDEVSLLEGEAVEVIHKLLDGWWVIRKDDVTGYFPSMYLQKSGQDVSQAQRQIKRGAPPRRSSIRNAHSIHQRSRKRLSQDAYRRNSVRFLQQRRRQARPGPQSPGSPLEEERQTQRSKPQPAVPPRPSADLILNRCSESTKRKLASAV
As to the kind of experiment: non-reducing SDS-PAGE of a disulfide-linked complex. As to conditions: remark: other sources report otherwise.

Test [2] addresses Protein disulfide isomerase A1 (PDI), recombinant wild type (human, UniProt P07237 18-508). The description is as above.

Protein disulfide isomerase A1 (PDI), recombinant wild type, sequence (P07237 18-508): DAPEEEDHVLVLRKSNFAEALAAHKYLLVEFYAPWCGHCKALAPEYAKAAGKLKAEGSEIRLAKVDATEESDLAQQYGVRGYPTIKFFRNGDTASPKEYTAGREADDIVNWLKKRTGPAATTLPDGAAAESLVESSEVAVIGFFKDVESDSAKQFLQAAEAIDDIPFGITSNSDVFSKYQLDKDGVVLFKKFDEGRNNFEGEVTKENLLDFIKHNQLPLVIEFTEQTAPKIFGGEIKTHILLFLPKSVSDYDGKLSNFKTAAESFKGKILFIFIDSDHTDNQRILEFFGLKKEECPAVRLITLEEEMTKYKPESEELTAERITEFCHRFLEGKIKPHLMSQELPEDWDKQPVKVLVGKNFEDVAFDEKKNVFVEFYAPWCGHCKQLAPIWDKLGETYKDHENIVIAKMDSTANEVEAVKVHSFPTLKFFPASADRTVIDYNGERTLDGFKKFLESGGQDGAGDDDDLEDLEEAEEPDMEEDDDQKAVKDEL

B1: p47phox, recombinant wild type (natural protein, human, UniProt P14598 1-390, looked up)
chain: MGDTFIRHIALLGFEKRFVPSQHYVYMFLVKWQDLSEKVVYRRFTEIYEFHKTLKEMFPIEAGAINPENRIIPHLPAPKWFDGQRAAENRQGTLTEYCSTLMSLPTKISRCPHLLDFFKVRPDDLKLPTDNQTKKPETYLMPKDGKSTATDITGPIILQTYRAIANYEKTSGSEMALSTGDVVEVVEKSESGWWFCQMKAKRGWIPASFLEPLDSPDETEDPEPNYAGEPYVAIKAYTAVEGDEVSLLEGEAVEVIHKLLDGWWVIRKDDVTGYFPSMYLQKSGQDVSQAQRQIKRGAPPRRSSIRNAHSIHQRSRKRLSQDAYRRNSVRFLQQRRRQARPGPQSPGSPLEEERQTQRSKPQPAVPPRPSADLILNRCSESTKRKLASAV
B1: the stoichiometry N in test [1] turned out to be 2. In addition, the binding result in test [2] is on record as “binds”.

The values are drawn from publication PMC6344286 (Arteriosclerosis, thrombosis, and vascular biology, 2019).
